Biological target: myelin basic protein
Sequence (P02687 whole entry): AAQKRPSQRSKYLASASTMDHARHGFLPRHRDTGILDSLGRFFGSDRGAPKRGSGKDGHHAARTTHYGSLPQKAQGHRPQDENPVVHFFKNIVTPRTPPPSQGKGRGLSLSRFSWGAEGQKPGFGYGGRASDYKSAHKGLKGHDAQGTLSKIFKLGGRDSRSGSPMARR

| Protein | in vitro kinase reaction; phosphorylation detected by Pro-Q Diamond phosphoprotein gel stain after SDS-PAGE |
| --- | --- |
| wild type protein kinase Nitab4.5_0003679 g0060.2 (SEQ ID No. 3) (protein) MAIEDNESCGSRVVDSATTSGRHQRKKLEVYNEVLRRLKESNNVEALEPGFDDELWAHFNRLPTRYAIDVNVERAEDVLTHKRLLHLAHVPANRPAFDVRLVQVASVPDGNLRDSFHSSFAKKEVSRSVHPPPAFGSSPNLEALACEAIKSEVQDEDTAAPCANFSRPMHEITFSTDDKPKLLSQLTSLLAELGLNIQEAHAFSTVDGYSLDVFVVDGWPYEEVVRLRTALEREILRNEKSWPSPSQSFIKQEQDLIKREFDHLTIPFDGIDVWEIDHQLLKFEYKIASGSYGDLYKGTYCSQDVAIKILKSERLNTELQTEFAQEVYIMRKVRHKNVVQFIGACTRPPNLCIVTEYMSGGSVYDYLHKRKGSFKLPTLLKVAIDVAKGMNYLHQNNIIHRDLKAANLLMDENEVIKVADFGVARVKAQTGVMTAETGTYRWMAPEVIEHKPYDHKADVFSFGVVLWELLTGKLPYEYLTPLQAAIGVVQKGLRPTIPKHTPPRLAELLETCWQQDPTSRPDFSEIVDILQQIAKEVGDERADRCKEKSAGGFFSALRRGHH | K308 (i.e. the wild type SEQ ID No. 3) is an active protein kinase |
| K308M variant of protein kinase Nitab4.5_0003679 g0060.2 (SEQ ID No. 3) (protein) MAIEDNESCGSRVVDSATTSGRHQRKKLEVYNEVLRRLKESNNVEALEPGFDDELWAHFNRLPTRYAIDVNVERAEDVLTHKRLLHLAHVPANRPAFDVRLVQVASVPDGNLRDSFHSSFAKKEVSRSVHPPPAFGSSPNLEALACEAIKSEVQDEDTAAPCANFSRPMHEITFSTDDKPKLLSQLTSLLAELGLNIQEAHAFSTVDGYSLDVFVVDGWPYEEVVRLRTALEREILRNEKSWPSPSQSFIKQEQDLIKREFDHLTIPFDGIDVWEIDHQLLKFEYKIASGSYGDLYKGTYCSQDVAIMILKSERLNTELQTEFAQEVYIMRKVRHKNVVQFIGACTRPPNLCIVTEYMSGGSVYDYLHKRKGSFKLPTLLKVAIDVAKGMNYLHQNNIIHRDLKAANLLMDENEVIKVADFGVARVKAQTGVMTAETGTYRWMAPEVIEHKPYDHKADVFSFGVVLWELLTGKLPYEYLTPLQAAIGVVQKGLRPTIPKHTPPRLAELLETCWQQDPTSRPDFSEIVDILQQIAKEVGDERADRCKEKSAGGFFSALRRGHH | the variant K308M is not an active kinase |
